Experimental data from publication PMC7058617 (Signal Transduction and Targeted Therapy, 2020).

Columns and labels:
[1] = target: PD-L1 extracellular domain (PD-L1-ECD) (UniProt Q9NZQ7); experiment: SPR; details: bispecific antibody
[2] = target: human CD47 extracellular domain (CD47-ECD) (human) (UniProt Q08722); experiment: SPR; details: bispecific antibody
[3] = target: T1, human CD47 extracellular domain (CD47-ECD) (human, UniProt Q08722, N-linked glycosylation observed at all five potential sites in the complex structure (N32 and N55 among them)); experiment: SPR; h4C1 and CD47-ECD proteins (WT, N32A, N55A); who was immobilised and the conditions are not given; details: both partners purified
T1 construct: CD47, human, extracellular domain; also called WT CD47-ECD; human CD47-ECD antigen
T1 sequence (Q08722 19-141): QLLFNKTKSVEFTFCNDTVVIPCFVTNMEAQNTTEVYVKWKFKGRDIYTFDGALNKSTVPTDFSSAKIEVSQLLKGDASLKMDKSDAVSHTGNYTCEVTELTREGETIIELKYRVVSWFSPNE

Chain of human CD47 extracellular domain (CD47-ECD) (human) (Q08722 19-141): as above
Chain of PD-L1 extracellular domain (PD-L1-ECD) (Q9NZQ7 19-238): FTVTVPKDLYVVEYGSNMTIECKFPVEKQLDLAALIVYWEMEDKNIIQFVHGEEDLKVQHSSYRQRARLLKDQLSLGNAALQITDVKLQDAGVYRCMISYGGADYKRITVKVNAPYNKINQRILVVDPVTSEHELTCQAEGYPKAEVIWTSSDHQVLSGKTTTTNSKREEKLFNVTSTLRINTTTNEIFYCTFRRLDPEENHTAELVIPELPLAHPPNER

Question: Which results are given for “CD47/PD-L1 dual-targeting bispecific antibody (DVD-Ig format) (from UniProt P01861)”?
Answer: Kd [1]: 0.74 nM; Kd [2]: 17.4 nM

B1: Humanized 4C1 (h4C1) monoclonal antibody (antibody, V domains shown)
VH: QVQLVQSGAEVKKPGASVKVSCKASGYTFTSYVMHWVRQAPGQRLEWMGYINPYNDGTKYNEKFKGKATLTSDKSTSTAYMELSSLRSEDTAVYYCARTEGHFYVSWFAYWGQGTLVTVSS
VL: DIQMTQSPSSLSASVGDRVTISCRTSQDISNYLNWYQQKPGKAPKLLIYYTSRLHSGVPSRFSGSGSGTDYTFTISSLQPEDIATYYCQQGNTLPFTFGQGTKLEIK
notes: Humanised from the murine mAb m4C1 (raised in mice immunised with human CD47); also called h4C1 mAb
Question: How did the Kd [3] turn out when B1 was run?
Answer: 0.85 nM
